According to publication PMC5026494:
Each block holds one substance with its values, some of them ahead of it.

How the values were obtained:
Test in all cases: split reporter
[1] = target: zipped β1–10 of the ZipGFP caspase reporter (E5-β1–10-K5 with DEVD), cleaved upon apoptosis
[2] = target: zipped β1–10 of ZipGFP with TEV cleavage sequence (E5-β1–10-K5), cleaved by co-expressed TEV protease
[3] = target: β1–10 part of ZipGFP with TEV cleavage sequence (E5-β1–10-K5), cleaved by TEV protease, purified

fold increase of green fluorescence (normalized to mCherry) upon apoptosis [1]: 5 to 10 fold
Substance: zipped β11 of the ZipGFP caspase reporter (K5-β11-E5 with DEVD), cleaved upon apoptosis

fold increase of green fluorescence over the uncleaved reporter [2]: 10 fold
Substance: zipped β11 of ZipGFP with TEV cleavage sequence (K5-β11-E5), cleaved by co-expressed TEV protease

time to half-maximal fluorescence (T1/2) after mixing [3]: 40 min
Substance: β11 part of ZipGFP with TEV cleavage sequence (K5-β11-E5), cleaved by TEV protease, purified
